Reference: article doi:10.1101/2024.07.05.601840v1

Tests used:
Experiment in all cases: purified protein
purified protein [1] = substrate: CC(=O)CC(=O)SCCNC(=O)CCNC(=O)[C@H](O)C(C)(C)COP(=O)(O)OP(=O)(O)OC[C@H]1O[C@@H](n2cnc3c(N)ncnc32)[C@H](O)[C@@H]1OP(=O)(O)O; settings: 0.2 mM NADPH, pH 7 TRIS-HCl, 35°C
purified protein [2] = substrate: C[C@@H](O)CC(=O)SCCNC(=O)CCNC(=O)[C@H](O)C(C)(C)COP(=O)(O)OP(=O)(O)OC[C@H]1O[C@@H](n2cnc3c(N)ncnc32)[C@H](O)[C@@H]1OP(=O)(O)O; settings: oxidative direction, 2 mM NADP+, pH 7 TRIS-HCl, 70°C
purified protein [3] = substrate: NC(=O)C1=CN([C@@H]2O[C@H](COP(=O)(O)OP(=O)(O)OC[C@H]3O[C@@H](n4cnc5c(N)ncnc54)[C@H](OP(=O)(O)O)[C@@H]3O)[C@@H](O)[C@H]2O)C=CC1; settings: 0.3 mM AcAcCoA, pH 7 TRIS-HCl, 35°C, varied: cofactor

B1: ACR (Saci_1104) (Sulfolobus acidocaldarius DSM 639) (protein)
chain: MYSLKDKVVVVTGSGRGIGRAIALRLAQEGSKIVVNAKKRAEEVNETVEMVKKIGGDAVGVLADVGTKEGCETLLKSTLDKFGVVDILVNNAGLGLFSLFMNADDKLIEKHISVDFKSVVYCSQAFAREMREGGEIVNIASIAGVLPAYGLSMYGAMKGAVISLTKYMALELAPKIRVNAIAPGWVKTKLGESMYKLLNMSEKEFVEKTTLMGKMLEPEDIAEFVTAILKIEGLTGQVFVVDAGESIKRGIA
Km (purified protein [1]): 77 ± 9 µM
kcat (purified protein [1]): 0.586 s⁻¹
Km (purified protein [2]): 160 ± 12 µM
kcat (purified protein [2]): 0.435 s⁻¹
Km (purified protein [3]): 24 ± 3 µM
